Results as given in the DeepSol protein solubility set.

Assay: soluble on expression in E. coli; label from the status in PepcDB or PDB records

Sequence	soluble on expression in E. coli
GPGSMGEGRIRCYYEVLEVERKATYDEIRTAYKKKSLQYHPDKNYGNQEEAAMRFKEVQNAYSILSDADERAWYDSHREAILRGGDGTGDLDELNLYEYFTAGCFDGFDDGESGFYTVYRKVFDILIEEESDYDSRAKLWPGFGTSTSDWADVQKFYGYWRNFSTYKTFTWKDEYKVNEMEDRYSRRMAGRINSKARDGAKKEYVRTVQSLAQFVYRRDPRVKAELERQEKEDQAKREERERQEIERLKRRREANERVWAEAAEREAREEAERAARGEAMDGSILEMLYEKERQTKEMMRGSGGVGAHTAGFAMLGGDDDEAVTVFNCPACKKQFKSENQYKEHVRSNKHKTKLKQLAAKGTDVAALMGEKVEGGSGGTEE	soluble
MGSDKIHHHHHHMATYNYPEFGAGLWHFANYIDRYAVDGYGPALSTIDQINAAKEVGELSYVDLPYPFTPGVTLSEVKDALKDAGLKAIGITPEIYLQKWSRGAFTNPDPAARAAAFELMHESAGIVRELGANYVKVWPGQDGWDYPFQVSHKNLWKLAVDGMRDLAGANPDVKFAIEYKPREPRVKMTWDSAARTLLGIEDIGLDNVGVLLDFGHALYGGESPADSAQLIIDRGRLFGMDVNDNLRGWDDDLVVGTVHMTEIFEFFYVLKINNWQGVWQLDQFPFRENHVEAAQLSIRFLKHIYRALDKLDIPALQAAQEAQNPLQAQRIVQDALLSSITVSE	not soluble
MKLKIDLNCDLGEAFGNYTFGGDQHILPLITSANIACGYHAGDEDVMNETVQLAKKNNISIGAHPGLPDLKGFGRRKMDLTPNEIYNLVIYQLGALSGFCKINHVKMMHVKPHGALYQMGARNKEIAHAIAQAVFDFDSNLIFVGLANTLLISEAELVGLKVASEVFADRRYEDDGQLVSRKKTDATITNTDEAIQQALKMVLENKVVSKNGKIIDLKADTICVHGDGKHALEFVTQIRNELMKEGIDIQSLLEHHHHHH	soluble
MASQAASKAVTFAYNGTIASTLRKFAWSNLWGGREYGLQFHDTYFEPAPEVTEALRRLNLQEPHVFDQRKIRLSRAHTLALHGEKLPKAEWTQWDQESWYLKPYLDEIEAEKKARAETSGLIPPYQMKQH	not soluble
MTPILTDRPALARHRTRACRAPALFLHEEAAREVEERLSEVNRRFTAPAVVTAFPEVWRDRLPNARIVTDAEELALDPGAHDLVIHALAMHWSNDPVGQLVQSRRALRPDGLFLGLLFGGRTLSELRIALAEAEAAVTGGLSPRVLPMAEIRDLGALLQRAGFALPVADSLVREVRYRDTLHLMRDLRAMGETNALEARLRRPSRRALFAEAEARYPRRADDRIVASFEIICLTGWAPHESQQKPLRPGSAARSLAEALAAARKDGPGDG	not soluble
MSLNKSVIGTKQMVVSPHYLASQAGNRILDKGGNAFDAAVAVSACLAVVYPHMTGLGGDSFWLTFHQETKAVKVYNGSGRSGKNVTRDVYKGKSAIPLRGIDSAITVPGMVDSWDAVLKEYGRLSLADVLEPARDYAQNGFPVSADQCRHTEKNIELLASTPYTADIFTRRGKAPVPGERFVQKELADSLNLIAEKGRSAFYEGDLAQRIVSHLQNNGSYMTIDDFKAHRGEWAAPVSSDYRGYSVYQAPPNSQGFTGLLTLNILENYDFTQIEHGSFEYYHVLVEALKKSFLDRDAVLTDPAFADIPLERLLDKRYAKQLAEEIGYLAIPAESRPVGSDTAYAAVIDADGNAVSFIQSLYFEFGSAVTAGDTGILLQNRGSFFSLDENHVNTLEPRKRTFHTLMPAMVCKGGKPKILYGTQGGEGQPQTQTAIITRMLDYGMHPQQAISEPRWVWGRTWGEEYEGLRVEGRFTDKTIQKLKDSGHLVEVVGDYDPLMGQAAAIKVDEEGFLQGGADPRGDGAAVGEGHHHHHH	not soluble
MAHHHHHHMWEETYVRACANLGVQPRNEVLAAVGGTAQLCGNTFANFENRLTDEELAALCETCRQISLVAVVRLPYNNITCRGATALAKAMKEGFSTLQYLDLSYNSINEEGANAIAAAATNYEMLSTLLLNGNPIGGGSGPCLKTLLESENTQLVTLDLEQTDQGLKSLVHIARGLVHNTTLTTLNLGRPLMTNPMDVSYVVEHLSLALKENRTLRFLGLSHFNMADCDLALLLSTLRDSAVTTLSLKGNKLSQASGEPLAQLLAHRPDFLSLDVTANRLRDVGALAIAAVIANHPGLRELQIGFNTIGGVGISALAQSLAANASITTLKLWGNDLTDESVRDLYAIRGRFESMEVTDFSFYVVDGCPMVARE	not soluble
GHHHHHHAIAENLYFQSEVSKANGTENNVEKFDAATQEATYLDEADVDAELEAMKKRLQEMEEEANRLKEVQEQSASEVPSSEEVDRRSVYVGNVDYGSTPEELQAHFKECGTINRVTILCDKFTGHPKGFAYIEFATEEGANNAVILNESLFRGRNLKVSIKRTNVPGISTTDRGRGRGFPRGIGFRGRGGLRGGFRGRGYHGFRGRGRMTPY	not soluble
FKRVSKAAVTASVTVIKAEDLVNTPVANPMELLQGRVPGLNIQMNNGTPGGLPSFSIRGVSDISVQSSGDGEFMMGLTPPLFVVDGIPQEDVTGYDAAGLLSGATVSPLAMIPLEDIANIQVLKDAAATSLYGSKGAYGVILIETKRGETA	not soluble
QVQLLESGAELVKPGASVKLSCKASGYTFTSYWMHWVKQRPGRGLEWIGRIDPNSGGTKYNEKFKSKATLTVDKPSSTAYMQLSSLTSEDSAVYYCTRRDSDYWGAGTTVTVSSASTKGPSVFPLAPSSKSTSGGTAALGCLVKDYFPEPVTVSWNSGALTSGVHTFPAVLQSSGLYSLSSVVTVPSSSLGTQTYICNVNHKPSNTKVDKKVEPKSCDKT	soluble
MANFEDFLTLDLRIGTVTHAEEFKEARVPAIKLEIDFGELGMKQSSAQITKRYNPEDLIGQQIVAVVNFPPKRVAGFKSEVLVLGGVPEAGDVVLLQPNMELPNGTKIS	not soluble
MHEITLCQRALELIEQQASAYGAKRVTAVWIKIGAFSCVETSALSFCFDLVCRGTIAEGCKLHLEEQEAECWCEHCQQYVTLLTHRVRRCPQCHSDTLRIVADDGLQIRRIEIDETED	not soluble
MTIKKSQIEKWIAAQKRHRLSDTHVQMARELGLNPDKLGKIDNHRQEPWKAPLPEFIEEIFYKRFKKERPDVVKPLKQILKEQEIKTKTKKKEKEIRRKEREQEQINNGTDEVLTFQSPTPITE	not soluble
LIFTCDKNKLQESIAIAQKAITGKSTMPILEGLYIEASENIVTIIGSDKDVSIETKFEADVTEPGKLVVDAKIFGEIIRKLPNDKIKIETVSEEAIRITCQKSVFDLLHMNAEDFPSLPKINENMIFSINQGILKNMIKGTSFAIAQDETRPILQGILFEIKDSKLNLVALDGYRLAIRTENIDTNNTINAVIPGKTLNEVAKILEDSEEIVNITFTPNHILFNMGDTKVISRLLEGEFIKYDALLPKEHKLQIEVDKQTLQNGIERASLMAKEGNSNLVKFDITDENIVITSNSQLGKVREEVTIKLQGDEIQIAFNSKYLLDVLKNMEEDKIELRMTSSISPCIIRNKNNDLCEYLVLPVRIAR	soluble
MVHMSWFRRRRKSFFDLLEDIFREFEEEFRELEEEFEKLASRVQSRGEEFGKGPYIYGVRITIGPDGVPKVEEFGNIRMARGRPQIREEMEPLVDVIERDDEVWIVADIPGANKDKIKVRATEDKVVIKAENGKKYYKEVELPAKVDPKSAKASYRNGVLEIKLKKIKPAEEGTEVKVE	soluble
MCPGVMGVGSTQSIVLVPGFPKPSTMNVQWKAEGAASQKDASTHKDWSSQVSSITCKPEKPETLPLGHFINGDFIVIIPAGGRALLSATGNAL	not soluble
MGSDKIHHHHHHVSVPTQHHLSAERLDQSAQFARITSTVEAPVLSLWLPDPQQAVPSACGRAVAGHDGPSEGAGGQRQGGESGQLCRAHLRLQPGPVLAGEAEAPPTRPQFLLVVATHLQRSFTREVKLHGRCPRRVRRPFHLITQIDNQVRGCRPDLTQHRREREGVPVHVADDCHSHPSSLAQTGAAPPANMRPMSILPDWRIRELAQAGMIEPFEDRLIRTAENGHVISYGLSSFGYDLRCADEWKVFTNVHGALVDPKNFDERSFVDLQANAIIIPPNSFVLARSLEYLRIPENVMVVALGKSTYARCGIVANVTPLEPGWEGHVTLEFSNTTPLPAKMYAFEGCVQLLFFEGERPAVTYRDRGGKYQKQRGVTLPRL	not soluble
MGSDKIHHHHHHMKLRLRKPMRSAGNMSSLVDFYNDFITRHGFEERKGIEETLRYLENGHNVILKAPTGYGKTTLTMILANAVSSNIDIGSRVIHVLPYRAIVQDLYLKLKKYADKGIIYTKSIGAQDMDYHDSPFFMKKVNVTTLDTFILNLFKLPTIDFKLIFKNYGSHYEFPRALIYSSIVIFDEFHLLGEDGKSLGAGLSAIEVLSDAGVPIVVTSATIDKGLERVLMDKLGKSGKVVYASDFKIDRKIYVNELEKDEISIADEKVKEGKRVLLVYNTRMGAIEAYWKLKERGLSPILIHSKFSKKDRIDKVNKINDAKLVVSTQVIEAGIDTSFDVLITEACPSHNLIQRAGRVARYGKGGKGKLEGEVYIFPFSGKVYNEGEVKETMKRVRKLKTIDESLLIERDYTKEIDSILARDLSVIDNSVFVDYKKVKSLYENICSITRETSIILGFPPNSDNVDDAIPLTEEEAIKIIKSKGSSAFVGNSNIKLYAGKCLQLEMIKNDILGVRIQDYNSEIGGVY	not soluble
MSLQAAGNAPAKISMLLTDGAIGQITKPFPEGGPSAKEVWERETGIEIDIVGAPAEDIFKKVMQDVTTGGGTFDIYTGPWNSTGDLVSSGGAVNCSDFVAKYQPDWADPERGTPTPEMEKLLYTYAGDYYSFSLDGDFQTWFYLKGLYEDPRVQDAFLSETGVALKTPDTWEEVDRISKFFTGKDFGNGPMYGNGNLMSPFWGLATFYARFASMDFPNYHFFDEDGNPNLNSDLGIQCAEEHVRSFEWCPPDALTFTWAEAYATMWNLQIPHTAIYTNLVKFGDGYNADGTPKSKATGMIGSHLPVGRRFGDQLNRRSVLYYHITAWISSQSQHPEAVYLFLQWLSSTRTYTWMAGNPGGYFDPMQQANFKEPLVASTYHPYAMETIPQTIARSVPSINFAGQTALDNALDEEIQAAITGQKSAREAMDAAQSKWERIIKRQEGHHHHHH	not soluble
AQQGVFTLPARINFGVTVLVNSAATQHVEIFVDNEPRAAFSGVGTGDNNLGTKVINSGSGNVRVQITANGRQSDLVSSQLVLANKLNLAVVGSEDGTDMDYNDSIVILNWPLG	soluble
MALPKTGYTKTTADNFVIDSATVFTDFKYDKEKEEFTGIPMGATSGGVEIKTELSYRKVEVDGAYIMDVVGLNVLESATATMKANLIELTAENLRRSLNATMTDATTDEAPAGYKIIKPKRYLEEGDYIPNMAVVGIHNGTKQPIIVALDNGLVKSGLEIKTEDGKEVVIEQEITANASYEQLINDEFPFRIYYPSTSKNPIELTESL	not soluble
MFDLEKVQTLNELEMLVYHYVLEHLHQIPQQTIRQLATSCHVSTSTILRFCNKMGYAGFSELKYAVKEEAKQTQTFENFYDATVHVDAFLKKLNQETYYEMLRPAIQMIVQARHVAFTGIGTSGILGSYGSRYFANLNINSYSIADPFTPIPKRGFENTLALILSVSGETNEMIKQMTDFKTAGAKVLSITNNQHSTIARLADYNISYYMPDERSPFADKSVNTTTQIPVIALIELLAHQASQLLKELDETPS	not soluble
KKISQYACQRRTTLNNYNQLFTDALDILAENDELRENEGSCLAFMRASSVLKSLPFPITSMKDTEGIPCLGDKVKSIIEGIIEDGESSEAKAVLNDERYKSFKLFTSVFGVGLKTAEKWFRMGFRTLSKIQSDKSLRFTQMQKAGFLYYEDLVSCVNRPEAEAVSMLVKEAVVTFLPDALVTMTGGFRRGKMTGHDVDFLITSPEATEDEEQQLLHKVTDFWKQQGLLLYCDILESTFEKFKQPSRKVDALDHFQKCFLILKLDHGRVHSEKSGQQEGKGWKAIRVDLVMCPYDRRAFALLGWTGSRQFERDLRRYATHERKMMLDNHALYDRTKRVFLEAESEEEIFAHLGLDYIEPWERNA	soluble
